Source: patent US20170342144A1 (Sanofi, published 2017)
Changes are numbered by the printed parent chain. Names and notes keep the numbering of the source.

T1: human TGFβ2 (human, UniProt P61812 303-414)
T1 construct: also called TGFβ2 homodimer
T1 sequence: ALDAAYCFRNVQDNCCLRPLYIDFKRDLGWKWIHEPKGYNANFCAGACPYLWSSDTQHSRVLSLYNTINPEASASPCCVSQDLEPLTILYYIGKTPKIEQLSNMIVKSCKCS

T2: human TGFβ3 (human, UniProt P10600 301-412)
T2 sequence: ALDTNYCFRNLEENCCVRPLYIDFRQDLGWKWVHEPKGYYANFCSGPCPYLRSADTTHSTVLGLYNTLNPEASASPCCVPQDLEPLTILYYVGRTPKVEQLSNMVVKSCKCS

B1: A93R(LC) (antibody, V domains shown)
VH: QVQLVQSGAEVKKPGSSVKVSCKASGYTFSSNVISWVRQAPGQGLEWMGGVIPIVDIANYAQRFKGRVTITADESTSTTYMELSSLRSEDTAVYYCASTLGLVLDAMDYWGQGTLVTVSS
VL: ETVLTQSPGTLSLSPGERATLSCRASQSLGSSYLAWYQQKPGQAPRLLIYGASSRAPGIPDRFSGSGSGTDFTLTISRLEPEDFAVYYCQQYRDSPITFGQGTRLEIK
notes: GC1008 IgG4 variant, light chain substitution
B2: V103R (antibody, V domains shown)
VH: B1 VH with V103R
VL: B1 VL with R93A
notes: GC1008 IgG4 variant
B3: L104K (antibody, V domains shown)
VH: B1 VH with L104K
VL: B1 VL with R93A
notes: GC1008 IgG4 variant
B4: L104R (antibody, V domains shown)
VH: B1 VH with L104R
VL: B1 VL with R93A
notes: GC1008 IgG4 variant
B5: V55K (antibody, V domains shown)
VH: B1 VH with V55K
VL: B1 VL with R93A
notes: GC1008 IgG4 variant
B6: I52S (antibody, V domains shown)
VH: B1 VH with I52S
VL: B1 VL with R93A
notes: GC1008 IgG4 variant
B7: I52R (antibody, V domains shown)
VH: B1 VH with I52R
VL: B1 VL with R93A
notes: GC1008 IgG4 variant
B8: I52K (antibody, V domains shown)
VH: B1 VH with I52K
VL: B1 VL with R93A
notes: GC1008 IgG4 variant
B9: I52A (antibody, V domains shown)
VH: B1 VH with I52A
VL: B1 VL with R93A
notes: GC1008 IgG4 variant
B10: I52E (antibody, V domains shown)
VH: B1 VH with I52E
VL: B1 VL with R93A
notes: GC1008 IgG4 variant
B11: I52C (antibody, V domains shown)
VH: B1 VH with I52C
VL: B1 VL with R93A
notes: GC1008 IgG4 variant
B12: I52H (antibody, V domains shown)
VH: B1 VH with I52H
VL: B1 VL with R93A
notes: GC1008 IgG4 variant
B13: I52N (antibody, V domains shown)
VH: B1 VH with I52N
VL: B1 VL with R93A
notes: GC1008 IgG4 variant
B14: I52W (antibody, V domains shown)
VH: B1 VH with I52W
VL: B1 VL with R93A
notes: GC1008 IgG4 variant
B15: I52Q (antibody, V domains shown)
VH: B1 VH with I52Q
VL: B1 VL with R93A
notes: GC1008 IgG4 variant
B16: I52D (antibody, V domains shown)
VH: B1 VH with I52D
VL: B1 VL with R93A
notes: GC1008 IgG4 variant
B17: I52G (antibody, V domains shown)
VH: B1 VH with I52G
VL: B1 VL with R93A
notes: GC1008 IgG4 variant
B18: I54N (antibody, V domains shown)
VH: B1 VH with I54N
VL: B1 VL with R93A
notes: GC1008 IgG4 variant

What follows are binders tested against T3, human TGFβ1 (human, UniProt P01137 279-390) (assay: Biacore, immobilised TGFβ).
T3 construct: also called TGFβ1 homodimer
T3 sequence (P01137 279-390 limits assumed): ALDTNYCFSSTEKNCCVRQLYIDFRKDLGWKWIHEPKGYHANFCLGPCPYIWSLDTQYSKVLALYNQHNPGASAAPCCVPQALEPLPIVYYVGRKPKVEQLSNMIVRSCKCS

binding result	Binder
no binding (tested: 50 nM)	B1
no binding (tested: 50 nM)	B2
no binding (tested: 50 nM)	B3
no binding (tested: 50 nM)	B4

Each binder was assayed against T1, human TGFβ2 (assay: Biacore, immobilised TGFβ).

binding result	Binder
no binding (tested: 50 nM)	B1
no binding (tested: 50 nM)	B2
no binding (tested: 50 nM)	B3
no binding (tested: 50 nM)	B4

These binders were tested against T2, human TGFβ3 (assay: Biacore, immobilised TGFβ).

binding result	Binder
no binding (tested: 50 nM)	B1
no binding (tested: 50 nM)	B2
no binding (tested: 50 nM)	B3
no binding (tested: 50 nM)	B4

Biological target: T3, human TGFβ1
Assay: Biacore, immobilised TGFβ
Remark: another data set of the same source

binding result	Binder
no binding (tested: 50 nM)	B5
no binding (tested: 50 nM)	B6
no binding (tested: 50 nM)	B7
no binding (tested: 50 nM)	B8
no binding (tested: 50 nM)	B9
no binding (tested: 50 nM)	B10
no binding (tested: 50 nM)	B11
no binding (tested: 50 nM)	B12
no binding (tested: 50 nM)	B13
no binding (tested: 50 nM)	B14
no binding (tested: 50 nM)	B15
no binding (tested: 50 nM)	B16
no binding (tested: 50 nM)	B17

Biological target: T1, human TGFβ2
Assay: Biacore, immobilised TGFβ
Remark: another data set of the same source

binding result	Binder
no binding (tested: 50 nM)	B5
no binding (tested: 50 nM)	B6
no binding (tested: 50 nM)	B7
no binding (tested: 50 nM)	B8
no binding (tested: 50 nM)	B9
no binding (tested: 50 nM)	B10
no binding (tested: 50 nM)	B11
no binding (tested: 50 nM)	B12
no binding (tested: 50 nM)	B13
no binding (tested: 50 nM)	B14
no binding (tested: 50 nM)	B15
no binding (tested: 50 nM)	B16
no binding (tested: 50 nM)	B17

Biological target: T2, human TGFβ3
Assay: Biacore, immobilised TGFβ
Remark: another data set of the same source

binding result	Binder
no binding (tested: 50 nM)	B5
no binding (tested: 50 nM)	B6
no binding (tested: 50 nM)	B7
no binding (tested: 50 nM)	B8
no binding (tested: 50 nM)	B9
no binding (tested: 50 nM)	B10
no binding (tested: 50 nM)	B11
no binding (tested: 50 nM)	B12
no binding (tested: 50 nM)	B13
no binding (tested: 50 nM)	B14
no binding (tested: 50 nM)	B15
no binding (tested: 50 nM)	B16
no binding (tested: 50 nM)	B17

What follows are binders tested against T3, human TGFβ1 (assay: Biacore off-rate vs wt GC1008).
Excerpt: (§1) Plasmids encoding either the GC1008 heavy chain or light chain were used as a template in PCR-based mutagenesis reactions. Mutations to the encoding DNA were made to create 155 single amino acid substitutions of the encoded heavy chain amino acid sequence and one single amino acid substitution of the encoded light chain amino acid sequence. A QuikChange® Lightning Site-Directed Mutagenesis kit (Agilent Technologies, Santa Clara Calif.) was used according to the manufacturer's instructions to create DNA mutations using a set of forward and reverse primers, either designed for a specific amino acid or for all 20 amino acids with a degenerate codon (NNK). After sequencing confirmation, identified mutant DNA was paired with a wild-type light or heavy chain DNA for transfection into an Expi293F™ host cell suspension (Life Techonologies Corp., Grand Island, N.Y.). At 4 days post-transfection, conditioned media (1 mL) was harvested and purified using a 1 mL Protein A PhyTip® column (PhyNexus, Inc., San Jose, Calif.) and a PureSpeed™ 12-channel pipette (Rainin Instrument LLC, Oakland, Calif.). Purified variant antibody samples were analyzed in duplicate on a Biacore® 3000 (GE Healthcare) at 50 nM concentrations, using the 100 RU level TGFβ1, 2, and 3 immobilized surfaces. The off-rate (kd) of the variants was divided by the kd of the wild-type control to obtain the fold change in the kd. […] A heat map was generated to visualize the results. Variants that completely lost affinity for TGFβ were shown in red without numbers.

kd mutant/kd wt	Binder
4.9	B18

The binders below were run against T1, human TGFβ2 (assay: Biacore off-rate vs wt GC1008).
Excerpt: as §1

kd mutant/kd wt	Binder
2.4	B18

Each binder was assayed against T2, human TGFβ3 (assay: Biacore off-rate vs wt GC1008).
Excerpt: as §1

kd mutant/kd wt	Binder
4.3	B18

These binders were tested against T3, human TGFβ1 (assay: Biacore off-rate vs wt GC1008, 50 nM).
How it was run: (§2)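 Surface plasmon resonance on a Biacore 3000 measured how fast purified antibody variants dissociated from TGFβ isoforms immobilized at about 100 RU. Variants carried single heavy- or light-chain substitutions and were produced by transient Expi293F transfection with Protein A cleanup. Samples at 50 nM were tested in duplicate, and each variant kd was divided by the wild-type control kd to give fold change.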

kd var/kd wt	Binder
4.9	B18

What follows are binders tested against T1, human TGFβ2 (assay: Biacore off-rate vs wt GC1008, 50 nM).
How it was run: as §2

kd var/kd wt	Binder
2.4	B18

Each binder was assayed against T2, human TGFβ3 (assay: Biacore off-rate vs wt GC1008, 50 nM).
How it was run: as §2

kd var/kd wt	Binder
4.3	B18

What follows are binders tested against T3, human TGFβ1 (assay: Biacore, top 2 concentrations only (90, 30 nM), 1:1 global fit, vs wt GC1008).
Method: (§3) In FIG. 6C, seventeen mutants were selected and scaled up to produce sufficient amount of purified protein for KD (equilibrium constant=kd/ka) analysis by Biacore. Multiple concentrations (90, 30, 10 and 3.33 nM) were used in duplicate on the 150 RU level TGFβ1, 2, and 3 immobilized surfaces. KD was calculated using global curve fitting analysis for a 1-to-1 Langmuir binding model. The experimental data from all four concentrations were used for calculation except for I54N and I54R mutants, where only the top 2 concentrations were used. The fold changes in KD were compared to the fold changes in kd (off rate) presented in FIG. 6B, and a heat map was generated for visualization. Similar fold changes were observed from the two data sets, confirming the validity of using kd as a parameter for screening of 155 single mutants as shown in FIG. 6B.

KD mutant/KD wt	Binder
7	B18

The binders below were run against T1, human TGFβ2 in the same assay as above.
Method: as §3

KD mutant/KD wt	Binder
4.5	B18

Each binder was assayed against T2, human TGFβ3 in the same assay as above.
Method: as §3

KD mutant/KD wt	Binder
13.1	B18
